The target in experiment [1] is human legumain, activated asparaginyl-specific endopeptidase (AEP) (human) (UniProt Q99538). The experiment in a line: SEC; legumain incubated with hCE-K75A at a 1:4 molar ratio in 50 mM citric acid pH 4.0, 100 mM NaCl for 1 h at 37 °C, till complete RCL hydrolysis; Superdex 75 or S200 10/300 GL in 20 mM citric acid pH 4.0, 50 mM NaCl; peak fractions analysed by SDS-PAGE. (In gel filtration, larger molecules generally elute earlier.)

Experiment [2] has the same target. The experiment in a line: enzyme inhibition kinetics (Ki from initial velocities, Morrison equation); hCE-K75A at 1.5 nM to 1.6 µM mixed with 50 µM AAN-AMC in 20 mM citric acid pH 5.5, 50 mM NaCl, 0.05% Tween-20; reaction started with 2 nM legumain; 10 min at 37 °C.

Sequence of UniProt Q99538 (Q99538 18-323): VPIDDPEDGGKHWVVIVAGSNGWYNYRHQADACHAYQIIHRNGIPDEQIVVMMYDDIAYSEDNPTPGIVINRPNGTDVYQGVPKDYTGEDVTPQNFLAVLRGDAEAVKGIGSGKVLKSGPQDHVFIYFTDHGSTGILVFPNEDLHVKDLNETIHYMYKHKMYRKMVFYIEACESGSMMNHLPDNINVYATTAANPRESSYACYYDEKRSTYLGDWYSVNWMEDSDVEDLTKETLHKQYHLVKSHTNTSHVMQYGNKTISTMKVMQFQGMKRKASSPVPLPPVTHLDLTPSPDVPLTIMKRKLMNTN

For the substance “human cystatin M/E-K75A mutant, cleaved by legumain after P1-Asn39 on the reactive center loop (complex)”, the molar ratio of enzyme:inhibitor in the complex peak (enzyme:inhibitor) in experiment [1] was found to be 1.
The Ki is the equilibrium dissociation constant of an inhibitor or competing ligand from its target. A lower Ki goes with tighter binding. The substance “human cystatin M/E-K75A mutant, intact (natural protein)” yielded a Ki in experiment [2] of 19.8 nM.

The values above are taken from article PMC9604545.
